US20160324962A1, “COMPOSITIONS AND METHODS FOR TREATING SARCOMA” (MEDIMMUNE, LLC, priority 2013, published 2016)

Experiments:
[1] = tested on: RD-ES (Ewing's sarcoma) xenografts; assay: Xenograft efficacy study in mice; assay type: in vivo
Text: Although proliferation of SK-ES-1 and SJCRH30 cells was inhibited by MEDI-573 in vitro in the absence of exogenous IGFs, the in vivo growth of these two models was not effected by MEDI-573 treatment.
The combination treatments were tolerated as no significant body weight loss was observed (FIG. 17B).
For in vivo efficacy studies, five million sarcoma cells in 50% matrigel were inoculated subcutaneously into each female athymic nude mice. When tumors reach approximately 150-200 mm^3, mice were randomly assigned into groups (10 mice per group). MEDI-573 was administrated intraperitoneally twice per week at indicated doses. The dose regimen for AZD2014 was oral once every day, for rapamycin was intraperitoneal injection every 3 days. Tumor volumes were measured twice weekly with calipers. Tumor growth inhibition was calculated on the last day of study relative to the initial and final mean tumor volume of the control group.

pAKT = assay: In vivo mechanism of action study, immunoblot of tumors; parameters: species or system mice
Description: (§1) The in vivo effects of MEDI-573 on IGF signaling were also examined in sarcoma xenografts. To be consistent with in vitro experiments, in vivo pharmacodynamic studies were performed in two ways. First, the effect of MEDI-573 on signaling that was induced by IGF ligands, which were secreted by tumors in an autocrine manner, was examined. A single dose of MEDI-573 was given to mice bearing ˜400 mm^3 RD-ES, SJSA-1, or KHOS/NP tumors.
(§2) IGF-1/-2 injection did change the baseline level of p4EBP-1.
(§3) For in vivo mechanism of action (MOA) studies, when tumors reached approximately 400 mm^3, a single dose of MEDI-573 was given. Tumor and plasma samples were collected 4 hr after dosing to assess the effect of MEDI-573 on autocrine IGF signaling. In another set of mice, 6 hr after MEDI-573 dosing, human IGF-1 or IGF-2 was injected by tail-vein. Tumor and plasma samples were collected 15 min after IGFs injection to assess the effect of MEDI-573 on IGF-1/-2 induced signaling.

p4EBP1 = assay: as above; parameters: species or system mice
Description: as §1, §2, §3

Akt phosphorylation = assay: pAKT assay in sarcoma cells (MSD); assay type: cell-based; conditions: RD-ES, TC-71, SK-ES-1, and SJSA-1 cells
Description: (§4) When exogenous IGF-1 or IGF-2 was added to cells, there was an induction of phosphorylation of IGF-1R and IR-A in all cells examined.
(§5) The sarcoma lines were cultured overnight in complete medium. The following day, medium containing 0.1% charcoal stripped fetal bovine serum (FBS) was added to the cultures and the cultures incubated overnight. The next day, cells were treated with various treatments for 5 minutes. Media was removed; cells were washed and lysed with 1.0% Triton X lysis buffer with protease and phosphatase inhibitors. Approximately 8-20 μg of total protein was loaded on MSD 96-Well MULTI-SPOT plates and the level of total and phosphorylated IGF-1R, IR-A and IRS-1 protein was determined using the Insulin Signaling Panel (total protein) and Insulin Signaling Panel (phosphoprotein) Whole Cell Lysate kits according to the manufacturers protocol. The level of total and phosphorylated AKT was determined using the Phospho (Ser473)/Total AKT Assay Whole Cell Lysate kit according to manufacturer's standard protocol.

KHOS cells = assay: IGF-induced proliferation (CTG); assay type: cell-based
Description: (§6) To access the effect of MEDI-573 on IGF-Induced proliferation, MEDI-573 or isotype control, was added to the cells for 30 minutes at 37° C. IGF-1 or IGF-2 was then added to the appropriate wells and incubated for 3 days. Proliferation was quantified using the CTG reagent.

SJSA-1 cells = assay: IGF-induced proliferation (CTG); assay type: cell-based
Description: as §6

human IGF-2 = target: T1, human IGF-2 (Homo sapiens, UniProt P01344); assay: IGF levels in tumor and plasma after injection of human IGF; assay type: in vivo, mice; conditions: RD-ES tumor lysates and plasma, intraperitoneal pretreatment for 6 hours, 15 min after IGF-2 injection
T1 construct: purchased R&D Systems (Minneapolis, Minn.)
Description: (§7) Thus, human IGF-1 and IGF-2 (IGF-1/-2) were injected into mice in an attempt to understand the role of IGF ligands in driving tumor growth when delivered by endocrine or paracrine secretion, and the effect of MEDI-573 in inhibiting this function. Fifteen minutes after IGF-1 or IGF-2 injection, high levels of IGF-1 or IGF-2 were detected both in RD-ES tumor and plasma.
as §3

human IGF-1 = target: T2, human IGF-1 (Homo sapiens, UniProt P05019); assay: as above; assay type: in vivo, mice; conditions: RD-ES tumor lysates and plasma, intraperitoneal pretreatment for 6 hours, 15 min after IGF-1 injection
T2 construct: purchased R&D Systems (Minneapolis, Minn.)
Description: as §7, §3

clone 32 (C32) tumors = assay: Growth of implanted tumors in mice; assay type: in vivo; conditions: C32 tumors overexpressing hIGF II and hIGF-1R
Text: (§8) MEDI 573 selectively binds to human insulin-like growth factor (hIGF)-I and hIGF-2 and […]. MEDI-573 targets the IGF-1 and IGF-2 ligands and thereby inhibits IGF-mediated signal transduction. […] Furthermore, MEDI-573 has potential to achieve this without perturbing glucose homeostasis, which has been an adverse effect observed with investigational agents that target IGF 1R. The results of in vitro studies have shown that MEDI-573 inhibited both IGF-1 and IGF-2-stimulated phosphorylation of IGF 1R and that of downstream signaling proteins including Akt and MAPK in a number of engineered mouse embryonic fibroblast NIH-3T3 cell lines transfected to express human IGF-1R and either human IGF-1/-2. Furthermore, MEDI-573 inhibited autocrine phosphorylation of these signaling molecules.

clone P12 (P12) tumors = assay: Growth of implanted tumors in mice; assay type: in vivo; conditions: P12 tumors overexpressing hIGF-1 and hIGF-1R
Text: as §8

pS6K = assay: In vivo mechanism of action study, immunoblot of tumors; conditions: RD-ES-bearing mice injected with human IGF-1/-2, MEDI-573 pretreatment
Description: as §2, §3

IR-A phosphorylation = assay: pIR-A assay in sarcoma cells (MSD); assay type: cell-based
Description: as §4, §5

[2] = RD-ES tumors ~400 mm^3, single dose, 4 hr after dosing
[3] = RD-ES-bearing mice injected with human IGF-1/-2, MEDI-573 pretreatment

T1 sequence (P01344 25-91 limits assumed): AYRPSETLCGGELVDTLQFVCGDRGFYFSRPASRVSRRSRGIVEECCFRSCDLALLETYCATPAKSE
T2 sequence (P05019 49-118 limits assumed): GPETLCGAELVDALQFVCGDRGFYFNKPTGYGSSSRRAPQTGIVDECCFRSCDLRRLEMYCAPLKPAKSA

B1: MEDI-573: fully human monoclonal IgG2 lambda antibody that binds IGF-2 with cross reactivity to IGF-1; hybridoma 7.159.2, ATCC PTA-7424 (antibody)
heavy: QVQLVQSGAEVKKPGASVKVSCKASGYTFTSYDINWVRQATGQGLEWMGWMNPNSGNTGYAQKFQGRVTMTRNTSISTAYMELSSLRSEDTAVYYCARDPYYYYYGMDVWGQGTTVTVSSASTKGPSVFPLAPCSRSTSESTAALGCLVKDYFPEPVTVSWNSGALTSGVHTFPAVLQSSGLYSLSSVVTVPSSNFGTQTYTCNVDHKPSNTKVDKTVERKCCVECPPCPAPPVAGPSVFLFPPKPKDTLMISRTPEVTCVVVDVSHEDPEVQFNWYVDGVEVHNAKTKPREEQFNSTFRVVSVLTVVHQDWLNGKEYKCKVSNKGLPAPIEKTISKTKGQPREPQVYTLPPSREEMTKNQVSLTCLVKGFYPSDIAVEWESNGQPENNYKTTPPMLDSDGSFFLYSKLTVDKSRWQQGNVFSCSVMHEALHNHYTQKSLSLSPGK
light: QSVLTQPPSVSAAPGQKVTISCSGSSSNIENNHVSWYQQLPGTAPKLLIYDNNKRPSGIPDRFSGSKSGTSATLGITGLQTGDEADYYCETWDTSLSAGRVFGGGTKLTVLGQPKAAPSVTLFPPSSEELQANKATLVCLISDFYPGAVTVAWKADSSPVKAGVETTTPSKQSNNKYAASSYLSLTPEQWKSHRSYSCQVTHEGSTVEKTVAPTECS
Q: B1 was tested. Which tumor growth inhibition ([1]; RD-ES xenograft model, AZD2014 combination study (FIG. 16A)) did it give?
A: 52%

Q: And the tumor growth inhibition ([1]; RD-ES xenograft model, rapamycin combination study (FIG. 17A))?
A: 59%

Q: What about the tumor growth inhibition ([1]; RD-ES xenografts, 10 mg/kg twice weekly intraperitoneally) of the same molecule?
A: 25%

Q: And the tumor growth inhibition ([1]; RD-ES xenografts, 30 mg/kg twice weekly intraperitoneally)?
A: 44%

Q: And the tumor growth inhibition ([1]; RD-ES xenografts, 60 mg/kg twice weekly intraperitoneally)?
A: 52%

Q: And the “autophosphorylation of pAKT in tumors” value (pAKT; KHOS/NP tumors, single dose)?
A: not in KHOS/NP tumors

Q: What about the “autophosphorylation of pAKT in tumors” value (pAKT; [2]) of the same molecule?
A: inhibited autophosphorylation

Q: What about the “IGF-induced pAKT in tumors” value (pAKT; [3]) of the same molecule?
A: dramatic reduction

Q: What about the “phosphorylated p4EBP1 in tumors” value (p4EBP1; KHOS/NP tumors, single dose) of the same molecule?
A: not in KHOS/NP tumors

Q: And the “phosphorylated p4EBP1 in tumors” value (p4EBP1; [2])?
A: inhibited

Q: What about the p4EBP-1 in tumors (p4EBP1; [3]) of the same molecule?
A: inhibited p4EBP-1 even below the baseline level

Q: And the “IGF-1 and IGF-2 stimulated phosphorylation of Akt” value (Akt phosphorylation)?
A: blocks this effect

Q: And the “autophosphorylation of Akt” value (Akt phosphorylation)?
A: inhibited autophosphorylation

Q: What about the “IGF-1 IC50 (μM)” value (KHOS cells; KHOS cells stimulated with IGF-1) of the same molecule?
A: No Induction

Q: What about the “IGF-2 IC50 (μM)” value (KHOS cells; KHOS cells stimulated with IGF-2) of the same molecule?
A: No Induction

Q: And the effect on growth (KHOS cells; KHOS cells, with or without IGF stimulation)?
A: failed to have any significant effect

Q: What about the “IGF-1 IC50 (μM)” value (SJSA-1 cells; SJSA-1 cells stimulated with IGF-1) of the same molecule?
A: No Induction

Q: And the “IGF-2 IC50 (μM)” value (SJSA-1 cells; SJSA-1 cells stimulated with IGF-2)?
A: No Induction

Q: What about the “reduction of IGF-2 levels” value (human IGF-2) of the same molecule?
A: almost completely

Q: What about the “reduction of IGF-1 levels” value (human IGF-1) of the same molecule?
A: approximately 50%

Q: What about the “growth of implanted tumors” value (clone 32 (C32) tumors) of the same molecule?
A: significantly inhibited the growth

Q: What about the “growth of implanted tumors” value (clone P12 (P12) tumors) of the same molecule?
A: significantly inhibited the growth

Q: And the “IGF-induced pS6K in tumors” value (pS6K)?
A: dramatic reduction

Q: What about the “autophosphorylation of IR-A” value (IR-A phosphorylation; KHOS cells) of the same molecule?
A: not in KHOS cells

Q: And the “autophosphorylation of IR-A” value (IR-A phosphorylation; RD-ES, TC-71, SK-ES-1, and SJSA-1 cells)?
A: inhibited autophosphorylation

Q: And the “IGF-1/-2-induced activation of IR-A” value (IR-A phosphorylation; pretreatment with MEDI-573, exogenous IGF-1 or IGF-2)?
A: inhibited
